Experimental findings from article PMC8602451 are described below.

Targets include ZNF280B (UniProt Q86YH2); DAXX; TRIM33 (UniProt Q9UPN9); PIAS1 (UniProt O75925); SNW1 (UniProt Q13573); XAB2 (UniProt Q9HCS7); PIAS3 (UniProt Q9Y6X2); TRIM24 (UniProt O15164); IRF2BP2 (UniProt Q7Z5L9); ZNF280A; RBM22; HSPA8; EXOSC9; PIAS2 (UniProt O75928); PIAS4 (UniProt Q8N2W9); GATAD2B (UniProt Q8WXI9); SIMC1; RAD54L2; FUS.
Common to all, as to assay: TurboID proximity labelling, streptavidin pull-down, LC-MS
Common to all, as to conditions: U2OS stable cell lines; 50 μM biotin for 2 h; read off a plot

UniProt Q13573, sequence (Q13573 whole entry): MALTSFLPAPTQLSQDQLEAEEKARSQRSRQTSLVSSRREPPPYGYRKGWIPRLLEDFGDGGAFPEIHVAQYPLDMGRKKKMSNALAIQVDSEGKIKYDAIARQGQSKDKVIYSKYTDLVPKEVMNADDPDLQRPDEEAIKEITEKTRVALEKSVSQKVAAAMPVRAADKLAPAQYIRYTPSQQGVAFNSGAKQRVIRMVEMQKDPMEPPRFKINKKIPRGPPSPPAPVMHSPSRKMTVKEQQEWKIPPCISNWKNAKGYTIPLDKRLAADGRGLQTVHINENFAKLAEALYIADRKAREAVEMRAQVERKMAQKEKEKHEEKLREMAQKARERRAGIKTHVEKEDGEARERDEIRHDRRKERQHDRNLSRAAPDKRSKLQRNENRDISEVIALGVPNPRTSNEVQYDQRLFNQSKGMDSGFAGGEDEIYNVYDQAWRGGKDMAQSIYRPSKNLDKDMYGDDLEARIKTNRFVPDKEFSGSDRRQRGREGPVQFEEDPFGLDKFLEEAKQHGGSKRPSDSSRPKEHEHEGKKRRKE
UniProt Q9Y6X2, sequence (Q9Y6X2 whole entry): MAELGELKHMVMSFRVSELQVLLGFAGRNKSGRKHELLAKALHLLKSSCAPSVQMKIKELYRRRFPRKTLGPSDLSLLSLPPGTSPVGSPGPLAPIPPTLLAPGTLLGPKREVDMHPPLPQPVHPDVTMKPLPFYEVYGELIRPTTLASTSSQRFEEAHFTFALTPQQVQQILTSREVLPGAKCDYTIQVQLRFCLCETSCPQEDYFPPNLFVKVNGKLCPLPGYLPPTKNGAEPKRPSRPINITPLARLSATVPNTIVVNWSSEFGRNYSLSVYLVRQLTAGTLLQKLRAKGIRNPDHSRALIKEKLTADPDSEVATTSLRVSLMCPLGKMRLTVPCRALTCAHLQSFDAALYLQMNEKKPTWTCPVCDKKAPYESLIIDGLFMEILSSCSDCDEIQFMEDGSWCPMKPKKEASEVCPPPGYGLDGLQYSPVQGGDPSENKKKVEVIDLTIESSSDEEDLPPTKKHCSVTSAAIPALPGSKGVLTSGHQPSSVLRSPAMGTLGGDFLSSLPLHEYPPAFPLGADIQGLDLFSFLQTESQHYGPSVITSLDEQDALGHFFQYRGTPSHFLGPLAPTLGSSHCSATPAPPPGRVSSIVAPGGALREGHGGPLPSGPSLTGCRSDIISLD
UniProt O75925, sequence (O75925 whole entry): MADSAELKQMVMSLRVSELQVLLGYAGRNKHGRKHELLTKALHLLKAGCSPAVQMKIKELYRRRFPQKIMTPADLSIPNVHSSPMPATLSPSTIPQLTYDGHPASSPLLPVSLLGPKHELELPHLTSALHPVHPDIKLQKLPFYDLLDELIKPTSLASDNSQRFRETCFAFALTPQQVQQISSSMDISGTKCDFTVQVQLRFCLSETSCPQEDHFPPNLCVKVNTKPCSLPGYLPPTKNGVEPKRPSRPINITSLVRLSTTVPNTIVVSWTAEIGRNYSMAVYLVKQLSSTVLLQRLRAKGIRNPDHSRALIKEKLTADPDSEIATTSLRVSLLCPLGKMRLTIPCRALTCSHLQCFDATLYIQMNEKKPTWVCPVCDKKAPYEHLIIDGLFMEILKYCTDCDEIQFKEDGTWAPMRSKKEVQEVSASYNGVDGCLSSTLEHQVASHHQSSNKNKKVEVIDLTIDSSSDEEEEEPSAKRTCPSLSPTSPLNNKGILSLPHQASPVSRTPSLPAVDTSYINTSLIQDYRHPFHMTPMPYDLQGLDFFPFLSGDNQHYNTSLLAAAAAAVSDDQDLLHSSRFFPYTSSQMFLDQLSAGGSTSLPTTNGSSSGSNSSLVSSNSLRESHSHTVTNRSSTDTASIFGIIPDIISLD
UniProt O15164, sequence (O15164 whole entry): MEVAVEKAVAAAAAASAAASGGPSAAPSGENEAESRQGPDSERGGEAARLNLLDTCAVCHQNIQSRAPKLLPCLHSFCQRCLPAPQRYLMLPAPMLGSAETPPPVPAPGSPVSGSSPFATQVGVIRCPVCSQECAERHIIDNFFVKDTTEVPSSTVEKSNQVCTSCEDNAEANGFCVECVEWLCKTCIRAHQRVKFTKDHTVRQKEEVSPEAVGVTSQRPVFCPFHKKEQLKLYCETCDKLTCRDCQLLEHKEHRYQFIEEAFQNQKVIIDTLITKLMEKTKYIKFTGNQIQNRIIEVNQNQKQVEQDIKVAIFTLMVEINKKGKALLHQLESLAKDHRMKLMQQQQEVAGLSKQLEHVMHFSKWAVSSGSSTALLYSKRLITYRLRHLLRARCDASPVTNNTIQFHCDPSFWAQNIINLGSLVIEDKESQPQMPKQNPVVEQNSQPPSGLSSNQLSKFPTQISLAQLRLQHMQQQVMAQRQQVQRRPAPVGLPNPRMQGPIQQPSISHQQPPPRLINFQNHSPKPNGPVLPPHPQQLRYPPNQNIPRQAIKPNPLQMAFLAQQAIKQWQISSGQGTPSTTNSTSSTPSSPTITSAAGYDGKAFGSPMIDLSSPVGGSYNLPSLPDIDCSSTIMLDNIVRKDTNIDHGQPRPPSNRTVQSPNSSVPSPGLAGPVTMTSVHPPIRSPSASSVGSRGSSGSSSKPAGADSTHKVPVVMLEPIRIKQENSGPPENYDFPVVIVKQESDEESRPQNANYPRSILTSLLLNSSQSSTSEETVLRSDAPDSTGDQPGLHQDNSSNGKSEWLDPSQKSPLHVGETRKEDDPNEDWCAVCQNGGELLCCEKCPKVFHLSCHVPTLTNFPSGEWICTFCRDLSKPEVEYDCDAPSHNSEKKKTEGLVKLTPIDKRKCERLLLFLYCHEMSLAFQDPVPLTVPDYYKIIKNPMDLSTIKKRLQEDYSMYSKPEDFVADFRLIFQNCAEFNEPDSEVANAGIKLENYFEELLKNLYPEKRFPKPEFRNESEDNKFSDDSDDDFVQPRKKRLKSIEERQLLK
UniProt O75928, sequence (O75928 whole entry): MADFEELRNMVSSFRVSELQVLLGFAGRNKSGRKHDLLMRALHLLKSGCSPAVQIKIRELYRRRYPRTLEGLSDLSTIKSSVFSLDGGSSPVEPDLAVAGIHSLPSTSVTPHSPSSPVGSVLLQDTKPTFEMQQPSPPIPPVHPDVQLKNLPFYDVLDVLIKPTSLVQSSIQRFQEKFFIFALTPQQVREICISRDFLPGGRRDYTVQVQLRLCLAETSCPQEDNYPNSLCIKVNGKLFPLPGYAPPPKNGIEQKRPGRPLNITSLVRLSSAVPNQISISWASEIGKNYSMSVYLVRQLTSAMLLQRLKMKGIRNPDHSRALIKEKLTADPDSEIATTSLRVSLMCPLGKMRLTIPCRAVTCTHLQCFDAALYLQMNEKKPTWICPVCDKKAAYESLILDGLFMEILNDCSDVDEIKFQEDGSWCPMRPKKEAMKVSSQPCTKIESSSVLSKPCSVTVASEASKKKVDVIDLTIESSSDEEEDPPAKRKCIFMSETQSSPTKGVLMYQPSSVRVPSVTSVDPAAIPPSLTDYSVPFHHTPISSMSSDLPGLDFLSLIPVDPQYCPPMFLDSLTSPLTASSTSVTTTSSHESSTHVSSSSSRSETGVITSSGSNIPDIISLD
UniProt Q8WXI9, sequence (Q8WXI9 whole entry): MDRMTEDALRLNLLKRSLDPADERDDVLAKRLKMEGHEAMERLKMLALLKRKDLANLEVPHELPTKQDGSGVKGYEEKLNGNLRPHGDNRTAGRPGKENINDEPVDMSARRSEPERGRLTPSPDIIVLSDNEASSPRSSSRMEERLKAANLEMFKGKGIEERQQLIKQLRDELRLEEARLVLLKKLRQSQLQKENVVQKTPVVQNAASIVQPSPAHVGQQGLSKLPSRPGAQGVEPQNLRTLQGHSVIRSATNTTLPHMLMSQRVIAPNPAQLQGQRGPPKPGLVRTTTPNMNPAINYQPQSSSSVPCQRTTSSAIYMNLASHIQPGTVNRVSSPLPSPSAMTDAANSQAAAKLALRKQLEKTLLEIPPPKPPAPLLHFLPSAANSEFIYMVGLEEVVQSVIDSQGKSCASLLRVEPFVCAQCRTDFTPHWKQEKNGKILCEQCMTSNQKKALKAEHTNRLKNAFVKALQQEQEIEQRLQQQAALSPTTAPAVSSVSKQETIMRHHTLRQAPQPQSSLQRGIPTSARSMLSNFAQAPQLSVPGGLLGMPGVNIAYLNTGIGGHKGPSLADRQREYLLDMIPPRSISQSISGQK
UniProt Q9HCS7, sequence (Q9HCS7 whole entry): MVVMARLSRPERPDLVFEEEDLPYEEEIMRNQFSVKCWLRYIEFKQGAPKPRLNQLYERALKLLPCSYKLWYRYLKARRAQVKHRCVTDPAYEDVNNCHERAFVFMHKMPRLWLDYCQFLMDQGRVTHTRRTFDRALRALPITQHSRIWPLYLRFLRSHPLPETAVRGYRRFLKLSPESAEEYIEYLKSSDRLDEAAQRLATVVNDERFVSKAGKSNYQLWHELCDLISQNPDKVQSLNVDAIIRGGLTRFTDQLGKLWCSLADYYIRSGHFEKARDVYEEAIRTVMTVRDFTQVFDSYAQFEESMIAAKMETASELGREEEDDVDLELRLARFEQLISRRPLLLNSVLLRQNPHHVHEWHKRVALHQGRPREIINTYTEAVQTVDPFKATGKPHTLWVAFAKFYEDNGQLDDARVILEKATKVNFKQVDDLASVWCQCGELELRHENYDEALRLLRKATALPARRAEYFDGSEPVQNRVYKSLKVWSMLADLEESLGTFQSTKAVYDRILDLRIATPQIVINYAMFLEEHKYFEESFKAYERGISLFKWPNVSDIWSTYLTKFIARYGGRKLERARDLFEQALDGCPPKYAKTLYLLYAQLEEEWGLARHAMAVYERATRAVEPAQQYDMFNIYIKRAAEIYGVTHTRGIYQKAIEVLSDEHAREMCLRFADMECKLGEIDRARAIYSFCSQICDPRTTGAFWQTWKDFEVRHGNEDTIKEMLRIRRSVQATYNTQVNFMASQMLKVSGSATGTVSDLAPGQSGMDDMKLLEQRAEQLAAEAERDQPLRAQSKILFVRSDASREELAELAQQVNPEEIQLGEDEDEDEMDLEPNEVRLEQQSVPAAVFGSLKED

For the substance “FLTbID-PML^WT (from UniProt P29590-12) 3MAS (K65; K160; K490 and SIM; replacement residues not printed)”, the other: Log2 LFQ ratio (TurboID-PML WT / TurboID-PML 3MAS) with ZNF280B turned out to be 4.8 Log2 LFQ; with DAXX, 2.3 Log2 LFQ; in the assay with TRIM33 it was 3.4 Log2 LFQ; in the assay with PIAS1, 3.5 Log2 LFQ; in the assay with SNW1 it was 0.58 Log2 LFQ; in the assay with XAB2 it was 0.1 Log2 LFQ. For the same substance, the other: Log2 LFQ ratio (TurboID-PML WT / TurboID-PML 3MAS) in the assay with PIAS3 was 3.6 Log2 LFQ; with TRIM24, 3.4 Log2 LFQ; with IRF2BP2 it was 0.15 Log2 LFQ; with ZNF280A, 2.9 Log2 LFQ; with RBM22, 3.5 Log2 LFQ; with HSPA8 it was 0.55 Log2 LFQ. In addition, the other: Log2 LFQ ratio (TurboID-PML WT / TurboID-PML 3MAS) with EXOSC9 was 1.8 Log2 LFQ; with PIAS2, 2.3 Log2 LFQ; in the assay with PIAS4, 3.7 Log2 LFQ; with GATAD2B it was 1.4 Log2 LFQ; with SIMC1, 5.9 Log2 LFQ; with RAD54L2 it was 5.4 Log2 LFQ. The other: Log2 LFQ ratio (TurboID-PML WT / TurboID-PML 3MAS) in the assay with FUS amounted to 4.5 Log2 LFQ.
